Reference: patent US20240024520A1 (UCB, published 2024)
Values joined by “and” are separate entries in the source; they are usually repeats but may differ in a detail not shown here. Equal entries are not always repeated. Where two headings read alike, the source gives them in different places.

Key:
[1] = target: T1, human complement component C5 (human, UniProt P01031 19-673; P01031 678-1676); assay: cell-based or functional assay
[2] = target: T1, human complement component C5; assay: cell-based or functional assay; remark: listed apart in the source
[3] = target: T2, human complement component C3 (human, UniProt P01024 23-667; P01024 672-1663); assay: counter screen
T2 construct: also called biotinylated C3
T2 sequence (P01024 23-667 limits assumed, chain 1 of 2): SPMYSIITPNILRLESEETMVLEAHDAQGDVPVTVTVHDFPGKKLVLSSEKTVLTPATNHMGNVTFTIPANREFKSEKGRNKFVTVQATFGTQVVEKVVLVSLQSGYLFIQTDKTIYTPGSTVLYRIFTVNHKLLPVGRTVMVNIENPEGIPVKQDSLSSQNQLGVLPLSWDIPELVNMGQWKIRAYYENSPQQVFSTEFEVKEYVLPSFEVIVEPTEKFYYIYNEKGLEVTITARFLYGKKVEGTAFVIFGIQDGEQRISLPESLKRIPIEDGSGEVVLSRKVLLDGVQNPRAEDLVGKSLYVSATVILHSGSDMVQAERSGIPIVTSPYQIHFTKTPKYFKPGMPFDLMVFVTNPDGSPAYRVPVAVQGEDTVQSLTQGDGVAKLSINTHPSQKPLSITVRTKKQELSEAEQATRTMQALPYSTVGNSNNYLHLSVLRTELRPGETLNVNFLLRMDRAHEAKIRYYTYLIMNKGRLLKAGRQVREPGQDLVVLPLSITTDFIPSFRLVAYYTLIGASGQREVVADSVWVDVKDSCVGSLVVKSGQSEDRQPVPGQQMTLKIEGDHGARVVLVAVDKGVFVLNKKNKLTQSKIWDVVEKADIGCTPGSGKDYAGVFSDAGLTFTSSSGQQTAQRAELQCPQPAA
T2 sequence (P01024 672-1663 limits assumed, chain 2 of 2): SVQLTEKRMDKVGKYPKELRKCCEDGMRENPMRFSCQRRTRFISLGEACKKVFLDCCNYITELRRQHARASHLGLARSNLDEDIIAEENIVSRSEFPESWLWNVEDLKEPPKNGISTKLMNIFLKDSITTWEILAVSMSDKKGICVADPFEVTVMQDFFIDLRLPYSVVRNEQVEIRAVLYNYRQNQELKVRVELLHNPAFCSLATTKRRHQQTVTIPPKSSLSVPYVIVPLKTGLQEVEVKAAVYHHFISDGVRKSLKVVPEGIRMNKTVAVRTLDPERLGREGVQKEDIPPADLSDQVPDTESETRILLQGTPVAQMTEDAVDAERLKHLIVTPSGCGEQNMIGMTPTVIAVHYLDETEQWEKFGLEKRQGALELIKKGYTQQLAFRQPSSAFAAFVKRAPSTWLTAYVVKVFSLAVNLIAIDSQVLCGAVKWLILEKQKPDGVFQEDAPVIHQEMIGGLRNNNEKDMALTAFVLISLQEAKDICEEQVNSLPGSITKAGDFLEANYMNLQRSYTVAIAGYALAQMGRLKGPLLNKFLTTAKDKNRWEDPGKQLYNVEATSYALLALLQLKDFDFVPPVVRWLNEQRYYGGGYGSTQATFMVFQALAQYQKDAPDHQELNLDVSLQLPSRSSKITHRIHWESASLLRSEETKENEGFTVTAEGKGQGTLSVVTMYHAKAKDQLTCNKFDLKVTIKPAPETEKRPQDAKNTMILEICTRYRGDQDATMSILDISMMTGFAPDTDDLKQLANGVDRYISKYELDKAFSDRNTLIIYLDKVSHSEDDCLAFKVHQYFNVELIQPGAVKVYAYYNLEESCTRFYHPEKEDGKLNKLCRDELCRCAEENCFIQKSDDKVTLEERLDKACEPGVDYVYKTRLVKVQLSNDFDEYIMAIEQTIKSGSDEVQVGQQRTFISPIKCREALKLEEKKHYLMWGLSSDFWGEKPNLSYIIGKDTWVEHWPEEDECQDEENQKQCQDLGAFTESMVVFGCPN

ovalbumin = target: T3, ovalbumin (UniProt P01012 2-386); assay: counter screen
T3 sequence (looked up): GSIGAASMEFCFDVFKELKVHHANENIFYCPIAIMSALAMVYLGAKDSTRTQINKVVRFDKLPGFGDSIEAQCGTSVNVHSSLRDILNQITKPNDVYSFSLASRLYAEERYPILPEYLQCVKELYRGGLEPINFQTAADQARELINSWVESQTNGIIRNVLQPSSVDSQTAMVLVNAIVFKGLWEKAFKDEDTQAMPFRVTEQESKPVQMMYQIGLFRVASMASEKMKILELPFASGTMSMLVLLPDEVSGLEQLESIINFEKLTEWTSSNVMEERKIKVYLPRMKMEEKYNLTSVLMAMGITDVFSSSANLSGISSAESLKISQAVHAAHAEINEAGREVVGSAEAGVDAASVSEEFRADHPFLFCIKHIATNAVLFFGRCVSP

[4] = target: T1, human complement component C5
[5] = target: T1, human complement component C5; assay: cell-based or functional assay; remark: listed apart in the source
[6] = target: T1, human complement component C5; assay: cell-based or functional assay; remark: listed apart in the source
mouse C5 = target: T4, mouse C5 (mouse, UniProt P06684 19-674; P06684 679-1680); assay: SPR single-cycle kinetics
T4 construct: mature; also called mouse C5 protein
T4 sequence (P06684 19-674 limits assumed, chain 1 of 2): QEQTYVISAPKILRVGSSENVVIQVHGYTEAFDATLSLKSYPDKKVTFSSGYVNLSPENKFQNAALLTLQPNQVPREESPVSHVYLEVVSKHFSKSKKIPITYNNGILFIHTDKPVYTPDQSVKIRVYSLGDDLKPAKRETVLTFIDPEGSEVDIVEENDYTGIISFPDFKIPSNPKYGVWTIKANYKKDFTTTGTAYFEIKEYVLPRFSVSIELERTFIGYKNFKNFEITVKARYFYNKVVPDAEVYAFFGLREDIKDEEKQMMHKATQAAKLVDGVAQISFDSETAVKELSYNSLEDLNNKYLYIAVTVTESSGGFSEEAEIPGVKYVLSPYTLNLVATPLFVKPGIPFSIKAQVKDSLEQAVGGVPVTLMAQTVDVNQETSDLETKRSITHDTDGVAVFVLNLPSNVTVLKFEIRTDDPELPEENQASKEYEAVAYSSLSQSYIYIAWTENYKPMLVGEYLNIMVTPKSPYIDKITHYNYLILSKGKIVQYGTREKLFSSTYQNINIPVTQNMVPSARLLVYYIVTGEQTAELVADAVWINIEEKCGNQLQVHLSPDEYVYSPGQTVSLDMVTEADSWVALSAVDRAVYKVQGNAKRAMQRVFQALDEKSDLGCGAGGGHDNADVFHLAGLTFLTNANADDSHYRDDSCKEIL
T4 sequence (P06684 679-1680 limits assumed, chain 2 of 2): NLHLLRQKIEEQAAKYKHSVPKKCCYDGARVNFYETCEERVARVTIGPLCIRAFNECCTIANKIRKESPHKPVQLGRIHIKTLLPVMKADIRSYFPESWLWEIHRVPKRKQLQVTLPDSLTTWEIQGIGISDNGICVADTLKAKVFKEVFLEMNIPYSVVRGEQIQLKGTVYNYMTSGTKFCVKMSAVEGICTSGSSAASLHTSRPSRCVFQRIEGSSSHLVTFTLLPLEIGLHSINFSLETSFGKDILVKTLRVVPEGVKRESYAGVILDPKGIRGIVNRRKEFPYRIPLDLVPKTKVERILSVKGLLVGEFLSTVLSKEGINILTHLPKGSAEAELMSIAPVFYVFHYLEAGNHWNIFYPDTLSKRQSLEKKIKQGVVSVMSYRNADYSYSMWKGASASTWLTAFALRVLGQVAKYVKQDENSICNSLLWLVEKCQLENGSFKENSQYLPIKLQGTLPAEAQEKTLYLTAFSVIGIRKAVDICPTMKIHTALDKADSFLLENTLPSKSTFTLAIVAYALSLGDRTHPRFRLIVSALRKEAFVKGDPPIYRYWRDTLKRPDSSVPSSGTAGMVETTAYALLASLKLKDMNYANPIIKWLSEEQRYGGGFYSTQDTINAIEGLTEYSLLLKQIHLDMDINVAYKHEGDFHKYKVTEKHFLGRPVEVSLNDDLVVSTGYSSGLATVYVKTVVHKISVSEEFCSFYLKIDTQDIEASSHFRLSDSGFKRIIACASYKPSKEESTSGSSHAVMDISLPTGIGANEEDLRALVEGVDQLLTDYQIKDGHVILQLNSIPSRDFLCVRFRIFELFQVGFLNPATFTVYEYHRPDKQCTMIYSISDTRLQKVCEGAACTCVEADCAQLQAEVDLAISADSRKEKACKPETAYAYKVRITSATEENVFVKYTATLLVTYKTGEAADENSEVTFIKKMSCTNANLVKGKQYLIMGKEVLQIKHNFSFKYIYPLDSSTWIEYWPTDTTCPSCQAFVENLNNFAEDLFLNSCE

[7] = target: T1, human complement component C5; assay: SPR single-cycle kinetics
[8] = target: T1, human complement component C5; assay: cell-based or functional assay; remark: listed apart in the source
[9] = target: T1, human complement component C5; remark: listed apart in the source
rat C5 = target: T5, rat C5 (Rattus norvegicus (rat), UniProt P08650 19-1681, limits assumed); assay: SPR multi-cycle kinetics, rat C5 immobilised
T5 construct: also called C5 protein from Rattus norvegicus (rat)

[10] = target: T1, human complement component C5; assay: cell-based or functional assay; remark: listed apart in the source
[11] = target: T1, human complement component C5; assay: cell-based or functional assay; remark: listed apart in the source
[12] = target: T1, human complement component C5; assay: SPR multi-cycle kinetics, human C5 immobilised, mean of n=3
[13] = target: T1, human complement component C5; assay: cell-based or functional assay; remark: listed apart in the source
[14] = target: T2, human complement component C3; assay: cell-based or functional assay
[15] = target: T1, human complement component C5; assay: SPR (Biacore), C5
[16] = target: T2, human complement component C3; assay: cell-based or functional assay; remark: listed apart in the source
[17] = target: T2, human complement component C3; assay: SPR (Biacore), C3, mean of n=3

T1 sequence (P01031 19-673 limits assumed, chain 1 of 2): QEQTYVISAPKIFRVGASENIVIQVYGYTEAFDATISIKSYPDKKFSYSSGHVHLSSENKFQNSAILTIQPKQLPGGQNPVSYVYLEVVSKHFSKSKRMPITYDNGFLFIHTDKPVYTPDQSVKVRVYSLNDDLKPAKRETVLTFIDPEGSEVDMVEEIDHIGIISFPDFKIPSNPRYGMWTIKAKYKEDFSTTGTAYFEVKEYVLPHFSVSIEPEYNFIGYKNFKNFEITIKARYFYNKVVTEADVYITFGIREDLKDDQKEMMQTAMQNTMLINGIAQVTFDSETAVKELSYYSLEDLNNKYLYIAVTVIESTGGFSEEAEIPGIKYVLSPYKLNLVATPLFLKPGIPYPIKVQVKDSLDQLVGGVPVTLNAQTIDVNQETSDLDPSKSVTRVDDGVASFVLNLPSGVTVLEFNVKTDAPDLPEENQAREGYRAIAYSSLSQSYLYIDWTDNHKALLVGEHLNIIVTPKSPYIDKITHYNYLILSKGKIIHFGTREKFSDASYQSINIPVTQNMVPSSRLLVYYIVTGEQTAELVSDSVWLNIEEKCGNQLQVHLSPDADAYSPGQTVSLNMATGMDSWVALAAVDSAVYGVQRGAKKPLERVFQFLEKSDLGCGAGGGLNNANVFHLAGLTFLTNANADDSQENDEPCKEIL
T1 sequence (P01031 678-1676 limits assumed, chain 2 of 2): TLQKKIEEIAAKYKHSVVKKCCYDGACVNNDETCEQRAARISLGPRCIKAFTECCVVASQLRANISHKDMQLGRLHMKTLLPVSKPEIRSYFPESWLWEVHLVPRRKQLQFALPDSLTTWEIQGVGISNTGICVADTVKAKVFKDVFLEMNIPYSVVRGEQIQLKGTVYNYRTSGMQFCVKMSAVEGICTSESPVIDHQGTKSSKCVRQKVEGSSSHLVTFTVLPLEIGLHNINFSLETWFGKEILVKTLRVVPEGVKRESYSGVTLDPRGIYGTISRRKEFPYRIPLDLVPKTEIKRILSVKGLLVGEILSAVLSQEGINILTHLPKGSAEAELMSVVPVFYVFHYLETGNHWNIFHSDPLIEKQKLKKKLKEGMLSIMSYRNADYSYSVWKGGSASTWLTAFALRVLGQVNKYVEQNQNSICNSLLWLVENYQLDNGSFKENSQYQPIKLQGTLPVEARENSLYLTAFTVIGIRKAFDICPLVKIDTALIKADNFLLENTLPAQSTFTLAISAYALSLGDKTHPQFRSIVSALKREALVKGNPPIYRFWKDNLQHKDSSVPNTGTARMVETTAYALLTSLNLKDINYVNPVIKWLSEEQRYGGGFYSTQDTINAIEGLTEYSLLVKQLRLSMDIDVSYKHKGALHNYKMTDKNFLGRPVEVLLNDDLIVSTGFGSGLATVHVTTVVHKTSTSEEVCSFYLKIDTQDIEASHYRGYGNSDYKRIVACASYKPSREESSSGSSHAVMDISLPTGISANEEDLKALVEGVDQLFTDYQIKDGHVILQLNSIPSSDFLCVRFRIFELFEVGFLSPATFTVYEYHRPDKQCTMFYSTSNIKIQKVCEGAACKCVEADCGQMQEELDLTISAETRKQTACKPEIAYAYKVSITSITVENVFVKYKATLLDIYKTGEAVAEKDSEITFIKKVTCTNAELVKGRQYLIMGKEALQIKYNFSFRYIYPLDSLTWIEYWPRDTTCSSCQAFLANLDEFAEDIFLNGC

## GSSGCPPGYKSGVDCSPGSECKWGCYAVDGRRYGGYGADSGVENLYFQ (Recombinant, cut out by TEV protease) [K57 knob domain peptide cleaved from the 645 Fab]
[1]
  Inhibition of alternative pathway mediated bacterial lysis, average Emax: 122%
  Inhibition of alternative pathway mediated bacterial lysis, geomean IC50: 1020 nM
[2]
  Inhibition of classical pathway mediated C5a release, geomean IC50: 4 nM
[3]
  binding result: no binding
ovalbumin
  binding result: no binding
[4]
  Kd: 1.4 nM
  koff: 0.000408 s⁻¹
  kon: 298000 M⁻¹ s⁻¹
[5]
  Inhibition of classical pathway mediated bacterial lysis, geomean IC50: 115 nM
[6]
  AP mediated bacterial killing assay, IC50: 1220 nM
Mouse C5
  binding result: no binding
[7]
  Kd: < 40 nM
[8]
  Inhibition of alternative pathway mediated C5a release, average Emax: 97.8%
  Inhibition of alternative pathway mediated C5a release, geomean IC50: 26.6 nM
[9]
  IC50: 4 nM and 3.2 nM and 3.5 nM and 3.6 nM
  Ki: 1.8 nM

## GCPPGYKSGVDCSPGSECKWGCYAVDGRRYGGYGADSGVGS [K57chemFE knob domain peptide]
Rat C5
  binding result: no binding
[10]
  alternative pathway complement ELISA (C5b deposition); IC50 (read off the curve): ~90 nM
[11]
  classical pathway haemolysis assay; IC50 (read off the curve): ~20 nM
[12]
  Kd: 2.28 nM
  koff: 0.000579 s⁻¹
  kon: 260000 M⁻¹ s⁻¹
[13]
  classical pathway complement ELISA (C5b deposition); IC50 (read off the curve): ~20 nM

B1: hC3nb1 VHH with C-terminal single-chain Fc tag (VHH, not shown: a dimerising Fc or GST)
VHH: QVQLVETGGGLVQAGGSLRLSCAASGSIFSLNAMGWFRQAPGKEREFVATINRSGGRTYYADSVKGRFTISRDNGKNMVYLQMHSLKPEDTAIYYCAAGTGWSPQTDNEYNYWGQGTQVTVSS
notes: also called hC3Nb1 WT
[14]
  classical pathway C5b neoepitope ELISA; IC50 (read off the curve): ~10 nM
[15]
  binding result: no binding
[16]
  alternative pathway C5b neoepitope ELISA; IC50 (read off the curve): ~100 nM
[17]
  Kd: 0.163 nM
